Reference: US20240327815A1

Columns and labels:
[1] = target: SARS-CoV-2 Delta (B.1.617.2) spike RBD (SPR) (SARS-CoV-2) (UniProt P0DTC2); experiment: SPR
[2] = target: SARS-CoV-2 Delta (B.1.617.2) spike RBD (SPR) (SARS-CoV-2) (UniProt P0DTC2); experiment: SPR, 1:1 model
[3] = target: B.1.1.7 (Alpha) SARS-CoV-2 spike protein, plate-coated (MSD) (SARS-CoV-2) (UniProt P0DTC2); experiment: MSD competition vs labelled ACE2
[4] = target: B.1.351 (Beta) SARS-CoV-2 spike protein, plate-coated (MSD) (SARS-CoV-2) (UniProt P0DTC2); experiment: MSD competition vs labelled ACE2
[5] = target: Omicron SARS-CoV-2 spike protein, plate-coated (MSD) (SARS-CoV-2) (UniProt P0DTC2); experiment: MSD competition vs labelled ACE2
[6] = target: Delta SARS-CoV-2 spike protein, plate-coated (MSD) (SARS-CoV-2) (UniProt P0DTC2); experiment: MSD competition vs labelled ACE2
[7] = target: Alpha SARS-CoV-2 spike on pseudotyped lentivirus (SARS-CoV-2) (UniProt P0DTC2); experiment: cell-based or functional assay
[8] = target: Beta SARS-CoV-2 spike on pseudotyped lentivirus (SARS-CoV-2) (UniProt P0DTC2); experiment: cell-based or functional assay

Substance: REGN10987 (Imdevimab) (antibody)
- Kd [1]: 0.105 nM
- Kd [2]: 0.105 nM

Substance: REGN10933 (Casirivimab) (antibody)
- Kd [1]: 0.0696 nM
- Kd [2]: 0.0696 nM

Substance: Bamlanivimab + Etesevimab
- IC50 [3]: 0.08 nM
- IC50 [4]: 0.31 nM
- IC50 [5]: 0.59 nM
- IC50 [6]: 0.16 nM

Substance: Sotrovimab (antibody)
- Pseudovirus Neutralization (IC50, nM) [7]: 3.32 nM
- Pseudovirus Neutralization (IC50, nM) [8]: 0.01 nM
